Measured values reported in the DeepSol protein solubility set.

Assay: soluble on expression in E. coli; label from the status in PepcDB or PDB records

Sequence | soluble on expression in E. coli
SLPNASRVVIVAGEESGDHHAAELVKQLKAVYPDLEISGIGGKHLRAAGVHLISDLTRYAVTGLTEIIPFLKIFRKAFQDIKQHLSTQKPDLLILVDYPAFNLRLAKYAKKKLGLKIIYYISPQIWAWKGKRIHLIKDCIDKMAVIFPFEKTIYENAGVPVSFVGHPLVKKIAAAKDKHSSRTSLGLPLNEPIIALLPGSRHSEIERHIPILVNTAKLLTLDSPKLRFVVPIAGTINPDKVKAYFSNQNLTVTFIQGQAIECMSAADFVIVASGTASLECALLEKPMCIIYKSSFLTYVAAMYFIKVKFLGLCNLLANKMMVPEFLQYDCNAIELSRYISNFHNNPNQPESMINQLAKLKESLSSSQADCSLFDLVVAELPEKNA | not soluble
SLPSVLDTLAAHSDNPSSFLALNSGNAYFHDGGFDGACAYRTSGRYVLQFGGPFTAPEHRARLLDAFAAHAGRRLVAVQLQRADAELYAAHGFTVNQLGASYAVDLSRFTLRGSRFVRLRNKISRARRAGLEVAEVMAGDDCAELDRIDQCWLRDKGRHVKELRFLVGQRNGSLQRHRRLFVGRIDGETAGYINYSPVYGSRSGWLHDLSRRRPDAPPGVMEALNATVMERLTAEGAGWLHFGFTPFTGLDPEHELPGASRMFTRFARLLAERGDVIYPAASQLEYKQKWAPHVVLPEYIAFRGRPRPGAVWQLLRATNAL | soluble
SLQKQEKIIEMFNQIAPTYDKANRILSFGADVAWRKKACQRVMSLYLKKDLKIADIACGTGDMIEIWQESALKMEKNILNIKGIDPSSGMLNVAKEKFPNVEFIKAGAQNLPLESQSLDILSISYGIRNVVERQKALSEFARVLQKDGILVVLEFTKREKGGFIAACRDFYLKNILPSIGGIISKNKSAYEYLPNSIEGFLSKKEFILELKNAGFEMLDYKSFSFGVSSMFIAKKL | soluble
SLQMKNYQQTLKRMSDRSSGFLGVGVHKQKLGIGAIAIVVTDKDGEIVDCEMMSGVTVFSRFKPLTDFVGMSLNECKVLLQNESVDIALHGALKKIEEQMNRKENVTT | soluble
SLRYIRQLCCVSLLCLSGSAVAANVRLQVEGLSGQLEKNVRAQLSTIESDEVTPDRRFRARVDDAIREGLKALGYYQPTIEFDLRPPPKKGRQVLIAKVTPGVPVLIGGTDVVLRGGARTDKDYLKLLDTRPAIGTVLNQGDYENFKKSLTSIALRKGYFDSEFTKAQLGIALGLHKAFWDIDYNSGERYRFGHVTFEGSQIRDEYLQNLVPFKEGDEYESKDLAELNRRLSATGWFNSVVVAPQFDKARETKVLPLTGVVSPRTENTIETGVGYSTDVGPRVKATWKKPWMNSYGHSLTTSTSISAPEQTLDFSYKMPLLKNPLEQYYLVQGGFKRTDLNDTESDSTTLVASRYWDLSSGWQRAINLRWSLDHFTQGEITNTTMLFYPGVMISRTRSRGGLMPTWGDSQRYSIDYSNTAWGSDVDFSVFQAQNVWIRTLYDRHRFVTRGTLGWIETGDFDKVPPDLRFFAGGDRSIRGYKYKSIAPKYANGDLKGASKLITGSLEYQYNVTGKWWGAVFVDSGEAVSDIRRSDFKTGTGVGVRWESPVGPIKLDFAVPVADKDEHGLQFYIGLGPEL | soluble
SLRYSKLTMLIPCALLLSACTTVTPAYKDNGTRSGPCVEGGPDNVAQQFYDYRILHRSNDITALRPYLSDKLATLLSDASRDNNHRELLTNDPFSSRTTLPDSAHVASASTIPNRDARNIPLRVDLKQGDQGWQDEVLMIQEGQCWVIDDVRYLGGSVHATAGTLRQSIENR | not soluble
SLSFASSACFNEAGTMFRIEPNLIKAIALVESNLKKDSIGKNRDKKNNIKSFDYGLMQINQMHIPMLKKRGIIKDERDLLDNPCLNIKIGTEILYKHFSRCGMTWQCLGTYNAGFAMDNQKKRLQYAKKIYIVYTRLNELDNRKALA | not soluble
SLSMVLLRGRLLSFRRAPLSIDDTQSYLYIEDGGLLLENGRIAAIGEYADIRETAPEDVEEKDHRPHLIVPGLIDMHLHFPQMQVIGSYAANLLEWLNTYTFPEECRFVESAHAQRIATHFYDELLRHGTTTAAAYCSVHKTSADAFFTEAMKRNMLMIGGKVMMDRNAPQGLLDTPETSYDETRQVIADWHGRGRNHVAITPRFAITSTPKQMEAAQALAQEFPDLFIQTHLSENLDEIKYTCELYPEATDYTDIYVRYGLMGNKTLLGHAIHLSDREADVLSETGAVAVHCPTSNLFIGSGLFPMKKLQRREKPVRIAVATDIGGGSSYSMLRTMDEAYKIQQLLGERLNPLESWYLMTRGNAEALSMVDRIGTLEAGTDADITVLNASSTPAMALKMEVVKSLTEELFLMLTMGDDRTVVETYVAGRAMKSVLA | not soluble
SLTTEVVMENVTAFWEEGFGELFEKAKQNNNNRKTSNGDDSLSFSNFSLLGTPVLKDINFKIERGQLLAVAGSTGAGKTSLLMMIMGELEPSEGKIKHSGRISFCSQFSWIMPGTIKENIIFGVSYDEYRYRSVIKACQLEEDISKFAEKDNIVLGEGGITLSGGQRARISLARAVYKDADLYLLDSPFGYLDVLTEKEIFESCVCKLMANKTRILVTSKMEHLKKADKILILHEGSSYFYGTFSELQNLQPDFSSKLMGGGGGSGGGGSGGGGSDDIWPSGGQMTVKDLTAKYTEGGNAILENISFSISPGQRVGLLGRTGSGKSTLLSAFLRLLNTEGEIQIDGVSWDSITLQQWRKAFGVIPQKVFIFSGTFRKNLDPYEQWSDQEIWKVADEVGLRSVIEQFPGKLDFVLVDGGCVLSHGHKQLMCLARSVLSKAKILLLDQPSAHLDPVTYQIIRRTLKQAFADCTVILCEHRIEAMLECQQFLVIEENKVRQYDSIQKLLNERSLFRQAISPSDR | soluble
SLTTQRLGLIMNGVTGRMGLNQHLIRSIVAIRDQGGVRLKNGDRIMPDPILVGRSAEKVEALAKRFNIARWTTDLDAALADKNDTMFFDAATTQARPGLLTQAINAGKHVYCEKPIATNFEEALEVVKLANSKGVKHGTVQDKLFLPGLKKIAFLRDSGFFGRILSVRGEFGYWVFEGGWQEAQRPSWNYRDEDGGGIILDMVCHWRYVLDNLFGNVQSVVCIGNTDIPERFDEQGKKYKATADDSAYATFQLEGGVIAHINMSWVTRVYRDDLVTFQVDGTHGSAVAGLSDCMIQARQATPRPVWNPDEKRLHDFYGDWQKLPDNVSYDNGFKEQWEMFIRHVYEDAPYKFTLLEGAKGVQLAECALKSWKERRWIDVAPIK | soluble
SLTVFQPLVPPDWKMNLREGSLYAQVAFSAAAGQGFEAGGHGVLKGGSAWMPDNQINGVDFVLPFRFSDGHWQLGIRRPVSLRIGEIVNQVTARNLTADLQGTWPWSEANPLQLSDVSVDLLGGKLTLLQLRMPQRDPALIRLQHISSSELTSAVKVKQFAMSGAVSGALPLWLENNQWIIHDGWLRNDGPMTLRLDKDTADALVADNVSAGAAINWLRYMEISRSWTQINLDNLGVLTLKASINGTSRVEGKSSTVHLNYAHEENIFDLWRSLRFGDNLQAWLEQNATL | not soluble
SMFRDQVGVLAGWFKGWNECEQTVALLSLLKRVSQTQARFLQLCLEHSLADCAELHVLEREANSPGIINQWQQESKDKVISLLLTHLPLLKPGNLDAKVEYMKLLPKTLAHSIEHNQHIEESRQLLSYALIHPATSLEDRSALAMWLNHLEDRTSTSFGGQNRGRSDSVDYGQTHYYHQRQNSDDKLNGWQNSRDSGICINASNWQDKSMGCENGHVPLYSSSSVPTTINTIGTSTSTSKFPGIPLT | soluble
SMGLPPGWDEYKTHNGKTYYYNHNTKTSTWTDPRMSS | soluble
SMSQIMYNYPAMLGHAGDMAGYAGTLQSLGAEIAVEQAALQSAWQGDTGITYQAWQAQWNQAMEDLVRAYHAMSSTHEANTMAMMARDTAEAAKWGG | soluble
SMTGPIVYVQNADGIFFKLAEGKGTNDAVIHLANQDQGVRVLGAEEFPVQGEVVKIASLMGFIKLKLNRYAIIANTVEETGRFNGHVFYRVLQHSIVSTKFNSRIDSEEAEYIKLLELHLKNSTFYFSYTYDLTNSLQRNEKVGPAASWKTADERFFWNHYLTEDLRNFAHQDPRIDSFIQPVIYGYAKTVDAVLNATPIVLGLITRRSIFRAGTRYFRRGVDKDGNVGNFNETEQILLAENPESEKIHVFSFLQTRGSVPIYWAEINNLKYKPNLVLGENSLDATKKHFDQQKELYGDNYLVNLVNQKGHELPVKEGYESVVHALNDPKIHYVYFDFHHECRKMQWHRVKLLIDHLEKLGLSNEDFFHKVIDSNGNTVEIVNEQHSVVRTNCMDCLDRTNVVQSVLAQWVLQKEFESADVVATGSTWEDNAPLLTSYQNLWADNADAVSVAYSGTGALKTDFTRTGKRTRLGAFNDFLNSASRYYQNNWTDGPRQDSYDLFLGG | soluble
